Test results taken from the supplement of paper PMC6757056.
± gives the standard deviation of the averaged measurements.

B1: library; a variant is named by its letters at N, in order (parent)
chain: GCUGUCACCGGUGCUUGGUACGUUAUAUUCAGCCGGUCUGAUGAGUCUNNNNNNAGACGAAACAGC

What was measured:
(6R,S)-folinic acid [1] = variants of: B1; test: normalized RNA/DNA level without ligand (relative to sTRSVctl = 100) (log10 (% of sTRSVctl)); HEK293T overexpressing SLC46A1; higher = less ribozyme self-cleavage, higher mRNA level; settings: without (6R,S)-folinic acid; ligand present: no
Method in brief: (§1)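 Ribozyme switch library plasmids linked to reporters were introduced into HEK293T cells at 4 µg per 6-well well, with ligand, if any, added 1 h before. Total RNA was extracted with EDTA 72 h later, reverse-transcribed, amplified, barcoded and sequenced. RNA level was computed from RNA over DNA reads relative to a spiked-in non-cleaving sequence or the top sequences, then scaled and log-transformed. The top set was 25 sequences, values were ×100 and log10, and the cutoff was ≥100 DNA reads.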

(6R,S)-folinic acid [2] = variants of: B1; test: normalized RNA/DNA level with ligand (relative to sTRSVctl = 100) (log10 (% of sTRSVctl)); HEK293T overexpressing SLC46A1; ligand concentration (+) RNA-Seq: 6 mM; higher = less ribozyme self-cleavage, higher mRNA level; settings: with (6R,S)-folinic acid; ligand present: yes
Method in brief: as §1

Variant	normalized RNA/DNA level without ligand (log10) ((6R,S)-folinic acid [1])	normalized RNA/DNA level with ligand (log10) ((6R,S)-folinic acid [2])
GCUGUCACCGGUGCUUGGUACGUUAUAUUCAGCCGGUCUGAUGAGUCUCACCGAAGACGAAACAGC	2.021 ± 0.0036	2.04 ± 0.04
GCUGUCACCGGUGCUUGGUACGUUAUAUUCAGCCGGUCUGAUGAGUCUCACCGGAGACGAAACAGC	1.9715 ± 0.00014	2.01 ± 0.0069
GCUGUCACCGGUGCUUGGUACGUUAUAUUCAGCCGGUCUGAUGAGUCUCACCGCAGACGAAACAGC	2.047 ± 0.0053	2.04 ± 0.034
GCUGUCACCGGUGCUUGGUACGUUAUAUUCAGCCGGUCUGAUGAGUCUCACCGUAGACGAAACAGC	2.02 ± 0.023	2.03 ± 0.033
GCUGUCACCGGUGCUUGGUACGUUAUAUUCAGCCGGUCUGAUGAGUCUUACCUAAGACGAAACAGC	2.0242 ± 0.0004	2.069 ± 0.019
GCUGUCACCGGUGCUUGGUACGUUAUAUUCAGCCGGUCUGAUGAGUCUUACCAUAGACGAAACAGC	1.9686 ± 0.001	2 ± 0.038
GCUGUCACCGGUGCUUGGUACGUUAUAUUCAGCCGGUCUGAUGAGUCUUACCAAAGACGAAACAGC	1.966 ± 0.0066	1.99 ± 0.02
GCUGUCACCGGUGCUUGGUACGUUAUAUUCAGCCGGUCUGAUGAGUCUUACCAGAGACGAAACAGC	1.862 ± 0.011	1.96 ± 0.025
GCUGUCACCGGUGCUUGGUACGUUAUAUUCAGCCGGUCUGAUGAGUCUAACCCGAGACGAAACAGC	1.99 ± 0.0042	2.02 ± 0.044
GCUGUCACCGGUGCUUGGUACGUUAUAUUCAGCCGGUCUGAUGAGUCUAACCCUAGACGAAACAGC	2.047 ± 0.013	2.04 ± 0.036
GCUGUCACCGGUGCUUGGUACGUUAUAUUCAGCCGGUCUGAUGAGUCUAACCCAAGACGAAACAGC	2.033 ± 0.016	2.03 ± 0.022
GCUGUCACCGGUGCUUGGUACGUUAUAUUCAGCCGGUCUGAUGAGUCUCACCCUAGACGAAACAGC	2.059 ± 0.0058	2.04 ± 0.012
GCUGUCACCGGUGCUUGGUACGUUAUAUUCAGCCGGUCUGAUGAGUCUCACCCCAGACGAAACAGC	2.031 ± 0.019	2.01 ± 0.022
GCUGUCACCGGUGCUUGGUACGUUAUAUUCAGCCGGUCUGAUGAGUCUCACCCGAGACGAAACAGC	2.018 ± 0.0098	2.01 ± 0.031
GCUGUCACCGGUGCUUGGUACGUUAUAUUCAGCCGGUCUGAUGAGUCUCACCCAAGACGAAACAGC	2.011 ± 0.017	2.01 ± 0.059
GCUGUCACCGGUGCUUGGUACGUUAUAUUCAGCCGGUCUGAUGAGUCUAACCGCAGACGAAACAGC	2.04 ± 0.029	2.013 ± 0.019
GCUGUCACCGGUGCUUGGUACGUUAUAUUCAGCCGGUCUGAUGAGUCUAACCGUAGACGAAACAGC	1.9935 ± 0.00042	2 ± 0.032
GCUGUCACCGGUGCUUGGUACGUUAUAUUCAGCCGGUCUGAUGAGUCUAACCGAAGACGAAACAGC	1.998 ± 0.014	1.99 ± 0.051
GCUGUCACCGGUGCUUGGUACGUUAUAUUCAGCCGGUCUGAUGAGUCUUACAUUAGACGAAACAGC	2.005 ± 0.0053	1.99 ± 0.042
GCUGUCACCGGUGCUUGGUACGUUAUAUUCAGCCGGUCUGAUGAGUCUGACCGUAGACGAAACAGC	2.03 ± 0.029	2.01 ± 0.023
GCUGUCACCGGUGCUUGGUACGUUAUAUUCAGCCGGUCUGAUGAGUCUGACCGAAGACGAAACAGC	2.09 ± 0.0085	2.033 ± 0.011

Variant	normalized RNA/DNA level without ligand (log10) ((6R,S)-folinic acid [1])	normalized RNA/DNA level with ligand (log10) ((6R,S)-folinic acid [2])
GCUGUCACCGGUGCUUGGUACGUUAUAUUCAGCCGGUCUGAUGAGUCUGACCGCAGACGAAACAGC	2.0652 ± 0.00035	2.018 ± 0.011
GCUGUCACCGGUGCUUGGUACGUUAUAUUCAGCCGGUCUGAUGAGUCUGACCGGAGACGAAACAGC	2.08 ± 0.053	2.0517 ± 0.0019
GCUGUCACCGGUGCUUGGUACGUUAUAUUCAGCCGGUCUGAUGAGUCUCACCUAAGACGAAACAGC	2.024 ± 0.005	2.06 ± 0.038
GCUGUCACCGGUGCUUGGUACGUUAUAUUCAGCCGGUCUGAUGAGUCUCACCUCAGACGAAACAGC	2.02 ± 0.021	1.99 ± 0.027
GCUGUCACCGGUGCUUGGUACGUUAUAUUCAGCCGGUCUGAUGAGUCUGACCCAAGACGAAACAGC	2.018 ± 0.0089	2 ± 0.04
GCUGUCACCGGUGCUUGGUACGUUAUAUUCAGCCGGUCUGAUGAGUCUGACCCGAGACGAAACAGC	2.031 ± 0.0022	2 ± 0.06
GCUGUCACCGGUGCUUGGUACGUUAUAUUCAGCCGGUCUGAUGAGUCUGACCCCAGACGAAACAGC	2.017 ± 0.0088	2 ± 0.045
GCUGUCACCGGUGCUUGGUACGUUAUAUUCAGCCGGUCUGAUGAGUCUAACCUCAGACGAAACAGC	2.1092 ± 0.0019	2.07 ± 0.052
GCUGUCACCGGUGCUUGGUACGUUAUAUUCAGCCGGUCUGAUGAGUCUAACCACAGACGAAACAGC	2.007 ± 0.0059	1.963 ± 0.015
GCUGUCACCGGUGCUUGGUACGUUAUAUUCAGCCGGUCUGAUGAGUCUGACCACAGACGAAACAGC	2.001 ± 0.012	2.002 ± 0.0054
GCUGUCACCGGUGCUUGGUACGUUAUAUUCAGCCGGUCUGAUGAGUCUGACCAUAGACGAAACAGC	2.017 ± 0.0083	2.01 ± 0.027
GCUGUCACCGGUGCUUGGUACGUUAUAUUCAGCCGGUCUGAUGAGUCUGACCAGAGACGAAACAGC	2.004 ± 0.013	2.022 ± 0.012
GCUGUCACCGGUGCUUGGUACGUUAUAUUCAGCCGGUCUGAUGAGUCUGACCUCAGACGAAACAGC	2.06 ± 0.0084	2.044 ± 0.0024
GCUGUCACCGGUGCUUGGUACGUUAUAUUCAGCCGGUCUGAUGAGUCUGACCUAAGACGAAACAGC	2.05 ± 0.0099	2.05 ± 0.035
GCUGUCACCGGUGCUUGGUACGUUAUAUUCAGCCGGUCUGAUGAGUCUUACCCCAGACGAAACAGC	2.03 ± 0.024	2.022 ± 0.017
GCUGUCACCGGUGCUUGGUACGUUAUAUUCAGCCGGUCUGAUGAGUCUUACCCUAGACGAAACAGC	2.032 ± 0.0098	2 ± 0.041
GCUGUCACCGGUGCUUGGUACGUUAUAUUCAGCCGGUCUGAUGAGUCUUACCCAAGACGAAACAGC	2.0351 ± 0.0019	2.02 ± 0.034
GCUGUCACCGGUGCUUGGUACGUUAUAUUCAGCCGGUCUGAUGAGUCUCACCAAAGACGAAACAGC	1.97 ± 0.016	1.99 ± 0.022
GCUGUCACCGGUGCUUGGUACGUUAUAUUCAGCCGGUCUGAUGAGUCUCACCACAGACGAAACAGC	1.998 ± 0.019	1.99 ± 0.026
GCUGUCACCGGUGCUUGGUACGUUAUAUUCAGCCGGUCUGAUGAGUCUCACCAGAGACGAAACAGC	1.977 ± 0.019	2 ± 0.036
